pKd: −log10 of the molar value. Blank lines part the entries; values can stand above or below the compound they belong to.
Experiments:
[1] = test system: microtubules of wild-type strain DDY898; experiment: Microtubule depolymerization by benomyl in yeast cells, immunofluorescence; type: cell-based; conditions: 20 μg/ml benomyl, two hours at 25° C.
Procedure: Yeast cells were grown to early log phase in minimal or rich medium. For galactose induction, cells were grown to log phase in medium containing either raffinose or glucose. Cells grown on glucose were washed twice with water and then diluted into medium containing galactose/raffinose. Galactose was added directly to medium containing raffinose. Fixation and immunofluorescence procedures were carried out as described by Drubin et al. (1988). The YOL134 anti-tubulin antibody was used at 1:200 and the anti-Duo1p antibody (preparation described below) at 1:2000. Fluorescein-conjugated anti-heavy chain secondary antisera were obtained from Cappel/Organon Teknika (Malvern, Pa.). To determine whether the localization of Duo1p was dependent on microtubules in vivo, microtubules of wild-type strain DDY898 were depolymerized by the addition of 20 μg/ml benomyl. […] With the elimination of microtubules, Duo1p staining also vanished.

[2] = target: bovine microtubules (assembled from bovine tubulin, stabilised with taxol) (bovine); experiment: co-sedimentation with microtubules; no increase with more microtubules
[3] = target: yeast microtubules (yeast); experiment: as above
[4] = target: bovine microtubules (assembled from bovine tubulin, stabilised with taxol) (bovine); experiment: co-sedimentation of in vitro translated Dam1p with taxol-stabilised bovine microtubules; half of Dam1p in the pellet at 5 µM microtubules

Compound: CCCCNC(=O)n1c(NC(=O)OC)nc2ccccc21 [benomyl]
depolymerization of microtubules (immunofluorescence) [1]: essentially all of the microtubules were depolymerized

percent of the protein bound to microtubules [2]: 9%
percent of the protein bound to microtubules [3]: 9%
Compound: GST-Duo1p fusion protein purified from yeast (pDD475)

pKd [4]: 5.30
Compound: in vitro translated Dam1p

From patent US6300084A, “Anti-mitotic agent screening process” (The Regents of the University of California, priority 1999, dated 2001)
